From US20200071380A1, “COMBINATION THERAPIES COMPRISING SIRP ALPHA-BASED CHIMERIC PROTEINS” (Shattuck Labs, Inc., priority 2018, published 2020)
Several values for one entry are separate records, joined by “and”; a condition that tells them apart may be missing. Equal entries are not always repeated.

Columns and labels:
[1] = target: recombinant human CD40 (human) (UniProt P25942); assay: SPR
[2] = target: FcγR-Ia (Homo sapiens, UniProt P12314); assay: SPR
[3] = system: tumors; assay: Mouse tumor model, SIRPα-Fc-OX40L and checkpoint antibodies (Example 14)
[4] = system: macrophages co-cultured with Toledo lymphoma cells; assay: qRT-PCR of macrophages sorted from Toledo lymphoma co-cultures; type: cell-based, human; details: qRT-PCR on macrophages isolated by FACS from Toledo co-cultures
Protocol: FIG. 8D: Macrophage:Toledo lymphoma co-cultures were harvested 2 hours into phagocytosis assays in the presence of rituximab ([…]), SIRPα-Fc-CD40L ([…]), or the combination of both agents. Macrophages were isolated by CD11b+FACS, RNA was prepared, cDNA synthesized, and gene expression (IFNa1, IFNb1, CD80, and CD86) assessed by qRT-PCR. Fold change was calculated using DDCT and values obtained from the housekeeping gene ACTB, and the corresponding values from untreated samples. […] After 2 hours, co-cultures were isolated from tissue culture vessels and were stained with a fluorescently conjugated CD11b antibody to discriminate macrophages. Cells were then assessed by flow cytometry for the co-localization of fluorescent signal from both cells types. […] After 24-hours type I interferon induced luminescence was assessed using a luminometer. The maximum luminescence (RLU) from each experiment was set to 1, and all other samples were normalized accordingly. […]
RNA was prepared from macrophages isolated using fluorescent activated cell sorting (FACS) from SIRPα-Fc-CD40L/Rituximab treated co-cultures macrophages and Toledo lymphoma cells. The RNA was assessed by gRT-PCR for expression of IFNα1 and IFNβ1, and the macrophage activation markers CD80 and CD86.

[5] = target: T1, recombinant mouse CD47 (mouse, UniProt Q61735 19-140, limits assumed); assay: dual ELISA: coat mCD47-Fc, titrated mSIRPα-Fc-CD40L, detect mCD40-His, tertiary anti-his-HRP, OD450. Signal needs both CD47 and CD40 to be bound.
T1 construct: also called murine CD47
T1 sequence (looked up): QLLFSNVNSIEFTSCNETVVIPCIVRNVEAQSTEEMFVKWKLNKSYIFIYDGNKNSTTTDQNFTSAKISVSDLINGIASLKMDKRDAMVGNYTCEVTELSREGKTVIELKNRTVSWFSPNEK

[6] = target: T2, recombinant mouse CD40 (mouse, UniProt P27512 20-193, limits assumed); assay: dual ELISA: coat mCD47-Fc, titrated mSIRPα-Fc-CD40L, detect mCD40-His, tertiary anti-his-HRP, OD450. This is the same curve as the CD47 row. mCD40-His is the detecting receptor.
T2 construct: also called murine CD40
T2 sequence (P27512 20-193 limits assumed): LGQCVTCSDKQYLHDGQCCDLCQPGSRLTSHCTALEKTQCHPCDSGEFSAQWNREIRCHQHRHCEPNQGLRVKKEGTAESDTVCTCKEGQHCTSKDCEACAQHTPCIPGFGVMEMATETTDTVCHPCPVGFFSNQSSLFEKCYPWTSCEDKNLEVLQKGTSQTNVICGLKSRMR

Chain of FcγR-Ia (P12314 16-288 limits assumed): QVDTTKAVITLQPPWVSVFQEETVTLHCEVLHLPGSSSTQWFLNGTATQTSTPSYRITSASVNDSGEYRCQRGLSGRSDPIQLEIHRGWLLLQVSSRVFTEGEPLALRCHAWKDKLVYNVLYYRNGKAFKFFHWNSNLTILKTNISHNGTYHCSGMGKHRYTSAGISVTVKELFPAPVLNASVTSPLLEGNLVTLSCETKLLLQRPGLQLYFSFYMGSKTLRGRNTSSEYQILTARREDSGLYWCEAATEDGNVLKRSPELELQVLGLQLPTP
Chain of recombinant human CD40 (human) (P25942 21-193 limits assumed): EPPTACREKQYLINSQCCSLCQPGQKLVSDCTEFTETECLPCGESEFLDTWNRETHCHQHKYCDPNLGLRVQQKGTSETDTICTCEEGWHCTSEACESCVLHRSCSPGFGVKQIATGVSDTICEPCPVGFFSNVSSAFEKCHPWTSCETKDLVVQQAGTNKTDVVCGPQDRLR

Fc-CD40L (Fc fusion)
Kd [1]: 1.15 nM
koff [1]: 0.000351 s⁻¹
kon [1]: 304000 M⁻¹ s⁻¹

IgG1 (antibody)
Kd [2]: 8.42 nM
koff [2]: 0.000156 s⁻¹
kon [2]: 18400 M⁻¹ s⁻¹

SIRPα(CD172a)-Fc-OX40L: Chimeric protein: ECD of SIRPα and ECD of OX40L fused via an antibody Fc domain (human sequence SEQ ID NO: 61)
tumor size ([3]; mouse, in vivo): effective in reducing tumor size
survival ([3]; sixteenth day following treatment): had any survivors by the sixteenth day following treatment

rituximab: anti-CD20 antibody [reference compound]
macrophage activation (CD80, CD86) and expression of type I interferon genes (IFNα1, IFNβ1) [4]: induced macrophage activation and the expression of type I interferon genes

B1: murine SIRPα-Fc-CD40L chimeric protein (Fc fusion)
chain: KELKVTQPEKSVSVAAGDSTVLNCTLTSLLPVGPIRWYRGVGPSRLLIYSFAGEYVPRIRNVSDTTKRNNMDFSIRISNVTPADAGIYYCVKFQKGSSEPDTEIQSGGGTEVYVLAKPSPPEVSGPADRGIPDQKVNFTCKSHGFSPRNITLKWFKDGQELHPLETTVNPSGKNVSYNISSTVRVVLNSMDVNSKVICEVAHITLDRSPLRGIANLSNFIRVSPTVKVTQQSPTSMNQVNLTCRAERFYPEDLQLIWLENGNVSRNDTPKNLTKNTDGTYNYTSLFLVNSSAHREDVVFTCQVKHDQQPAITRNHTVLGFAHSSDQGSMQTFPDNNATHNWNHRRLDKVEEEVNLHEDFVFIKKLKRCNKGEGSLSLLNCEEMRRQFEDLVKDITLNKEEKKENSFEMQRGDEDPQIAAHVVSEANSNAASVLQWAKKGYYTMKSNLVMLENGKQLTVKREGLYYVYTQVTFCSNREPSSQRPFIVGLWLKPSSGSERILLKAANTHSSSQLCEQQSVHLGGVFELQAGASVFVNVTEASQVIHRVGFSSFGLLKL
EC50 [5]: 7.37 nM and 8.73 nM
EC50 [6]: 7.37 nM and 8.73 nM
